From PMC9490040, “Mechanistic insight into the RNA-stimulated ATPase activity of tick-borne encephalitis virus helicase”

Target: NS3H (NS3 helicase domain) WT (Tick-borne encephalitis virus strain …, UniProt Q01299 1662-2110)
Assay: fluorescence anisotropy; 1 mM Mg2+; no nucleotide; apparent KD; 20 mM Tris-HCl pH 7.5, 100 mM NaCl, 1 mM MgCl2, 7.5% glycerol; 45 min at 30 C; […]
Settings: protein: recombinant; tags: N-terminal 10xHis (pET-19b); label: 5' 6-FAM; single strand

NS3H (NS3 helicase domain) WT, sequence (Q01299 1662-2110): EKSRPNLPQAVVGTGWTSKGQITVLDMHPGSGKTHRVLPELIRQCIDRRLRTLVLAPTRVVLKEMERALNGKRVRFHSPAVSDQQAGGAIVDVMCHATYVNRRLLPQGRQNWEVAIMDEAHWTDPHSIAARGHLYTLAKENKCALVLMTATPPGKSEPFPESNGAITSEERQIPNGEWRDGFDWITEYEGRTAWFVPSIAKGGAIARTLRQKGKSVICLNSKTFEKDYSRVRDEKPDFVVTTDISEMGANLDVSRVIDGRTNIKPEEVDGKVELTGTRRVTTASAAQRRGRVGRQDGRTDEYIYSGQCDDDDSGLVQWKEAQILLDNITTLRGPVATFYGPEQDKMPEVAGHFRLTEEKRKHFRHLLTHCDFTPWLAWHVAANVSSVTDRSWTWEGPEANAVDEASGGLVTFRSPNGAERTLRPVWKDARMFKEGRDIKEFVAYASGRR

AGAUUUUCUUGC (ssRNA) [6-FAM-ssRNA12]
Kd: 49.7 ± 9.3 nM
